Experimental data published in paper PMC4491177, “Co-translational capturing of nascent ribosomal proteins by their dedicated chaperones” (Nature Communications, 2015).

What was measured:
Rpl3 = assay: tandem-affinity purification of NTAP-Rrb1; assay type: binding, S. cerevisiae; details: TAP from yeast cell lysate, EGTA eluate, Coomassie
Description: (§1) Cells expressing Sqt1-TAP and NTAP-Rrb1 were grown at 30 °C in 4 l yeast extract peptone dextrose (YPD) medium to an optical density (OD600) of 2. Cell extracts were obtained by glass bead lysis with a Pulverisette (Fritsch). TAPs were performed in a buffer containing 50 mM Tris-HCl (pH 7.5), 100 mM NaCl, 1.5 mM MgCl2, 5% glycerol and 0.1% NP-40 as described. The EGTA eluates were precipitated by the addition of TCA to a final concentration of 10% and, after an acetone wash, dissolved in 80 μl of 3 × SDS sample buffer. Protein samples were separated on NuPAGE 4–12% Bis-Tris 12-well gels (Novex), run in 1 × MES SDS running buffer, and subsequently stained with Brilliant Blue G Colloidal Coomassie (Sigma).

Rpl10 = assay: tandem-affinity purification of Sqt1-TAP; assay type: binding, S. cerevisiae; details: TAP from yeast cell lysate, EGTA eluate, Coomassie
Description: as §1

Molecule	co-purification of Rpl3 (Rpl3)	co-enrichment of Rpl10 (Rpl10)
NTAP-Rrb1: N-terminally TAP-tagged Rrb1 (protein, left off: NTAP (proteinA-TEV-CBP-Flag), N-terminal, kept) MSKRSIEVNEEQDRVVSAKTESHSVPAIPASEEQDAPKNDLEEQLSDEFDSDGEIIEIDGDDEINDEDDLRKKQEEAETLVQKDQSEGNKEKIQELYLPHMSRPLGPDEVLEADPTVYEMLHNVNMPWPCLTLDVIPDTLGSERRNYPQSILLTTATQSSRKKENELMVLALSNLAKTLLKDDNEGEDDEEDDEDDVDPVIENENIPLRDTTNRLKVSPFAISNQEVLTATMSENGDVYIYNLAPQSKAFSTPGYQIPKSAKRPIHTVKNHGNVEGYGLDWSPLIKTGALLSGDCSGQIYFTQRHTSRWVTDKQPFTVSNNKSIEDIQWSRTESTVFATAGCDGYIRIWDTRSKKHKPAISVKASNTDVNVISWSDKIGYLLASGDDNGTWGVWDLRQFTPSNADAVQPVAQYDFHKGAITSIAFNPLDESIVAVGSEDNTVTLWDLSVEADDEEIKQQAAETKELQEIPPQLLFVHWQKEVKDVKWHKQIPGCLVSTGTDGLNVWKTISV	robust co-purification of Rpl3	–
Sqt1-TAP: C-terminally TAP-tagged Sqt1 (protein, left off: TAP, C-terminal, kept) MEPQEEFITTEEVEQEIVPTVEVEQDVPVDIEGENDDDDEMMNDDEEALEVDMSNNSLTYFDKHTDSVFAIGHHPNLPLVCTGGGDNLAHLWTSHSQPPKFAGTLTGYGESVISCSFTSEGGFLVTADMSGKVLVHMGQKGGAQWKLASQMQEVEEIVWLKTHPTIARTFAFGATDGSVWCYQINEQDGSLEQLMSGFVHQQDCSMGEFINTDKGENTLELVTCSLDSTIVAWNCFTGQQLFKITQAEIKGLEAPWISLSLAPETLTKGNSGVVACGSNNGLLAVINCNNGGAILHLSTVIELKPEQDELDASIESISWSSKFSLMAIGLVCGEILLYDTSAWRVRHKFVLEDSVTKLMFDNDDLFASCINGKVYQFNARTGQEKFVCVGHNMGVLDFILLHPVANTGTEQKRKVITAGDEGVSLVFEVPN	–	good co-enrichment of Rpl10
